Experimental findings from patent publication US20070053894A1 are described below.

The target of experiment [1] is Soluble human recombinant p97 (melanotransferrin) (human) (UniProt P08582). Put plainly: cell-based or functional assay.
The target of experiment [2] is endogenous membrane-bound p97 of HMEC-1 and SK-MEL28 cells (human) (UniProt P08582). Put plainly: cell-based or functional assay.
For experiment [3], the target named is Soluble human recombinant p97 (melanotransferrin) (human) (UniProt P08582). Put plainly: SPR (BIAcore), p97 immobilised on CM5 chip, mAb injected at 0.05 µg/µl. For orientation: Surface plasmon resonance follows binding to a sensor surface in real time, without labels.
For experiment [4] the target is unchanged. Nature of the experiment: SPR (BIAcore), p97 immobilised on CM5 chip, mAb injected.

pKd: −log10 of the molar value.

As a reminder, the pKd is the Kd on a negative log10 scale, so that one unit is a factor of ten. Broadly, the koff is a measure of how fast the partners let go of each other. For orientation: kon means the second-order rate constant of association.

Chain of endogenous membrane-bound p97 of HMEC-1 and SK-MEL28 cells (human) (P08582 20-709): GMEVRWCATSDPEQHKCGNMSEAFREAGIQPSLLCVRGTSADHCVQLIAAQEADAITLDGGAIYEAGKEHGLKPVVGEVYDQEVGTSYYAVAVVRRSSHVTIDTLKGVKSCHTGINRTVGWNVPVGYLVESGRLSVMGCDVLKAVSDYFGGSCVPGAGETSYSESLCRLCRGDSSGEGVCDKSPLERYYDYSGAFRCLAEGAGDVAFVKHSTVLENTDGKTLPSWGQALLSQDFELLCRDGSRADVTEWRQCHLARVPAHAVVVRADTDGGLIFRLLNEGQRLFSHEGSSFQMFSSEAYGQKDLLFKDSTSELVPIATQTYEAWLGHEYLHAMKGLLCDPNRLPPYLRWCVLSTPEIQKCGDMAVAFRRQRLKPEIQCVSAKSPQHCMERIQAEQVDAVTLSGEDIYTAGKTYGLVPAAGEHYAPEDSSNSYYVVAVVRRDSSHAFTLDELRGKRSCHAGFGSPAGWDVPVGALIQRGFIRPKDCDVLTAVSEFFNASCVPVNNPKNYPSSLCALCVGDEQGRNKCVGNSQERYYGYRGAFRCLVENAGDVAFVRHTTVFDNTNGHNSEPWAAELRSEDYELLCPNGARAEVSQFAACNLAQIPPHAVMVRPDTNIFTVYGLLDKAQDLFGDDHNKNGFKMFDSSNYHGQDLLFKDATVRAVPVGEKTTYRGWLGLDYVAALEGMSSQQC
Chain of Soluble human recombinant p97 (melanotransferrin) (human) (P08582 20-711 T431K): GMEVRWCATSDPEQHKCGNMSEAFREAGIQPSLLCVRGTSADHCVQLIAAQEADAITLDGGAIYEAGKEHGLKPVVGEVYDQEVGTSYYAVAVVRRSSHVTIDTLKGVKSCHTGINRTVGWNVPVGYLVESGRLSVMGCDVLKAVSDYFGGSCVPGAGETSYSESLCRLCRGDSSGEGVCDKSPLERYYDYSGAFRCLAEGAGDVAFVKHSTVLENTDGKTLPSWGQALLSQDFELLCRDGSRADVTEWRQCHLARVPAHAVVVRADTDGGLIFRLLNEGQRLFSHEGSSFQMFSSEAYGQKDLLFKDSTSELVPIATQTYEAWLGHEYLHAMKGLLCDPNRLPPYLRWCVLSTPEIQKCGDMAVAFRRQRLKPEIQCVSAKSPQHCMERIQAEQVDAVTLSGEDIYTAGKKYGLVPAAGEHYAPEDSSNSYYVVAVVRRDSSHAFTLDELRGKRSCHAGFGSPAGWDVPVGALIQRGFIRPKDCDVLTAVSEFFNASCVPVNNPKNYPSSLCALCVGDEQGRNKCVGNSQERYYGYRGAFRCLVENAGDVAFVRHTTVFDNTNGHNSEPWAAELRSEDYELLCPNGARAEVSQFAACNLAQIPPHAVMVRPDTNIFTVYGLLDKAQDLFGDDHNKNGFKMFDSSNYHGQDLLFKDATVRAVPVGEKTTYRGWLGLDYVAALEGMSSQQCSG

As for “monoclonal antibody L235 directed against p97”, in experiment [1], the inhibition of the effect of soluble p97 on plasminogen activation by tPA was found to be 80% and the inhibition of the pro-uPA activation induced by p97 (plasminolytic activity) was 50%. In experiment [2], the inhibition of HMEC-1 cell migration by 50 nM mAb L235 (Boyden chamber) was determined as 54%, the inhibition of SK-MEL28 cell migration by 50 nM mAb L235 (Boyden chamber) stood at 48% and the inhibition of plasminolytic activity of HMEC-1 cells by 250 nM mAb L235 is > 50%. In addition, the ΔRU in experiment [3] is 1060 RU. Further, in experiment [4], the Ka was 9e+08 M⁻¹, the negative logarithm of the Kd (pKd) is 8.92, the koff worked out at 5.3e-05 s⁻¹ and the kon amounted to 44000 M⁻¹ s⁻¹.
